Like-named read-outs stand apart in the source and are kept apart here.
Columns and labels:
Assay in all cases: ITC
[1] = target: GABARAPL2 (mouse, UniProt P60521 1-117)
[2] = target: LC3B (mouse, UniProt Q9CQV6 1-120)
[3] = target: LC3A (mouse, UniProt Q91VR7 1-121)
[4] = target: T1, GABAAR-associated protein (GABARAP) (mouse, UniProt Q9DCD6 1-117)
[5] = target: GABARAP K66E (mouse, UniProt Q9DCD6 1-117, K66E)
[6] = target: GABARAP K24E (mouse, UniProt Q9DCD6 1-117, K24E)
[7] = target: GABARAP E17A (mouse, UniProt Q9DCD6 1-117, E17A)
[8] = target: T1, GABAAR-associated protein (GABARAP); remark: listed apart in the source

T1 sequence (Q9DCD6 whole entry): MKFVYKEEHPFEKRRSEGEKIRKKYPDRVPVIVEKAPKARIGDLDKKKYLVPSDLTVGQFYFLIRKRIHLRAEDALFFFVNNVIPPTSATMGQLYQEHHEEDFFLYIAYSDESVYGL
Sequence of GABARAP E17A (Q9DCD6 whole entry E17A): as the sequence (Q9DCD6 whole entry) above, with E17A counted along it
Sequence of GABARAP K24E (Q9DCD6 whole entry K24E): as the sequence (Q9DCD6 whole entry) above, with K24E counted along it
Sequence of GABARAP K66E (Q9DCD6 whole entry K66E): as the sequence (Q9DCD6 whole entry) above, with K66E counted along it
Sequence of GABARAPL2 (P60521 whole entry): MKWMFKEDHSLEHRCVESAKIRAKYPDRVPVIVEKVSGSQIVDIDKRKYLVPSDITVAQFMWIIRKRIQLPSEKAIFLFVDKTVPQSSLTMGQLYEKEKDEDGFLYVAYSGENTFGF

ERDEEYGYECLDGKDCAS [GABAAR γ2 subunit GIM (GABARAP interacting motif, 398–415)]
Kd [1]: > 200 µM
Kd [2]: > 300 µM
Kd [3]: > 300 µM
Kd [4]: 6.8 µM
Kd [5]: 23.6 µM
Kd [6]: > 100 µM
Kd [7]: 6.8 µM

PAPTIDIRPRSATIQMNNATHLQERDEEYGYECLDGKDCASFFCCFEDCR (domain or fragment) [GABAA receptor γ2 subunit 375-424]
Kd [8]: 5.1 µM

PEDDWTEFSSEEIREARQAAASHAPS [AnkG-WT peptide]
Kd [4]: 0.007 µM

VEEERVIVSDEEIEEARQKAPLEITEY [AnkB-WR peptide]
Kd [4]: > 100 µM

PEDDWTRFSSEEIREARQAAASHAPS [AnkG-ER peptide]
Kd [4]: 0.007 µM

Reference: article PMC7803741 (2021)
